Assay [1] concerns the target T1, Myc-tagged IQGAP1 (wild type) (Homo sapiens (Human), UniProt P46940 1-1657, phosphoserine at 480 where phosphorylated by GLK, as the filing reports).
T1 construct: the same molecule is used here; also called Myc-IQGAP1; IQGAP1 WT; not shown: Myc tag
Description: co-IP of anti-Flag immunocomplexes, HEK293T cells treated with 25 µM pervanadate (FIG. 18E). On the procedure: (A) Silver-stained gel of anti-Flag immunoprecipitates from HEK293T cells transfected with empty vector or Flag-tagged GLK in the presence or absence of the tyrosine phosphatase inhibitor pervanadate (25 μM). Arrows indicate the positions of GLK or GLK-interacting proteins. (B) Four pervanadate-induced tyrosine phosphorylation residues of GLK proteins were listed. (C and D) Co-immunoprecipitation of anti-Flag (C) or anti-Myc (D) immunocomplexes from lysates of HEK293T cells transfected with Flag-tagged GLK, Myc-tagged IQGAP1, or both plasmids. The whole-cell lysate immunoblots before immunoprecipitation (Pre-IP) are shown at the bottom of each panel. β-Tubulin was used as the loading control. (E) Co-immunoprecipitation of anti-Flag immunocomplexes from lysates of HEK293T cells transfected with either Flag-tagged GLK or Flag-tagged GLK mutant (Y366F, Y379F, Y574F, or Y735F). HEK293T cells were treated with 25 μM pervanadate for 2 h (F) In situ PI A of HEK293T cells transfected with empty vector, 3× Flag-tagged GLK, Myc-tagged IQGAP1, or GLK together with IQGAP1 plasmids. Arrows indicate the PLA signals (red spots). Original magnification, ×40. Scale bar, 10 μm. (G) The relative PLA signal of each group per field is shown on the plot. (H) FRET assays of HEK293T cells transfected with the indicated plasmids encoding CFP- and YFP-fused GLK and IQGAP1 proteins. […]

A further assay deals with T2, HA-tagged AhR (Homo sapiens (Human), UniProt P35869 1-848, limits assumed).
T2 construct: also called HA-AhR; purified AhR; not shown: HA tag
T2 sequence: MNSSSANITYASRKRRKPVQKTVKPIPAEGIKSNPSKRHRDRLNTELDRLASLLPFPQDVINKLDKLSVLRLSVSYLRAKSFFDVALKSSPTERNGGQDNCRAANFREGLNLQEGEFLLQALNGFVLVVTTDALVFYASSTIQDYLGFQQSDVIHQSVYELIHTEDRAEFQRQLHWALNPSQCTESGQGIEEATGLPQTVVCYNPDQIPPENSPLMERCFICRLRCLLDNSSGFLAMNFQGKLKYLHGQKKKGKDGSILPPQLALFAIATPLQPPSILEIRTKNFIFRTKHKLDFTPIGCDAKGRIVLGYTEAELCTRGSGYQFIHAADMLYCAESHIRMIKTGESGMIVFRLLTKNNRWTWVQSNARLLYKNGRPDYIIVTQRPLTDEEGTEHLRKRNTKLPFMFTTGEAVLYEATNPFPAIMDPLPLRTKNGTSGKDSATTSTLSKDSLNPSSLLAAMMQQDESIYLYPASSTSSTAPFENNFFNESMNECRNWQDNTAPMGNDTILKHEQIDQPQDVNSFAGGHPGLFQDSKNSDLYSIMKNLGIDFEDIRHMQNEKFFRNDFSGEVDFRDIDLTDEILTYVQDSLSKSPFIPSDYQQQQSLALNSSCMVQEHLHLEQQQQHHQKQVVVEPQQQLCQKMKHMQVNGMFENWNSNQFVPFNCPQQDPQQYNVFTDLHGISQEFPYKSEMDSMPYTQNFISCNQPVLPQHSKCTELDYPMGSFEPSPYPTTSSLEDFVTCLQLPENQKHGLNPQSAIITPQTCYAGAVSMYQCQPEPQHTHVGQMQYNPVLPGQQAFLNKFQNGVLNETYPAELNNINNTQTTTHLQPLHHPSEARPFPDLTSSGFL
The assay is described as follows: co-IP, HEK293T cells co-transfected with IKKβ-CFP (FIG. 5I).

T1 sequence (P46940 whole entry): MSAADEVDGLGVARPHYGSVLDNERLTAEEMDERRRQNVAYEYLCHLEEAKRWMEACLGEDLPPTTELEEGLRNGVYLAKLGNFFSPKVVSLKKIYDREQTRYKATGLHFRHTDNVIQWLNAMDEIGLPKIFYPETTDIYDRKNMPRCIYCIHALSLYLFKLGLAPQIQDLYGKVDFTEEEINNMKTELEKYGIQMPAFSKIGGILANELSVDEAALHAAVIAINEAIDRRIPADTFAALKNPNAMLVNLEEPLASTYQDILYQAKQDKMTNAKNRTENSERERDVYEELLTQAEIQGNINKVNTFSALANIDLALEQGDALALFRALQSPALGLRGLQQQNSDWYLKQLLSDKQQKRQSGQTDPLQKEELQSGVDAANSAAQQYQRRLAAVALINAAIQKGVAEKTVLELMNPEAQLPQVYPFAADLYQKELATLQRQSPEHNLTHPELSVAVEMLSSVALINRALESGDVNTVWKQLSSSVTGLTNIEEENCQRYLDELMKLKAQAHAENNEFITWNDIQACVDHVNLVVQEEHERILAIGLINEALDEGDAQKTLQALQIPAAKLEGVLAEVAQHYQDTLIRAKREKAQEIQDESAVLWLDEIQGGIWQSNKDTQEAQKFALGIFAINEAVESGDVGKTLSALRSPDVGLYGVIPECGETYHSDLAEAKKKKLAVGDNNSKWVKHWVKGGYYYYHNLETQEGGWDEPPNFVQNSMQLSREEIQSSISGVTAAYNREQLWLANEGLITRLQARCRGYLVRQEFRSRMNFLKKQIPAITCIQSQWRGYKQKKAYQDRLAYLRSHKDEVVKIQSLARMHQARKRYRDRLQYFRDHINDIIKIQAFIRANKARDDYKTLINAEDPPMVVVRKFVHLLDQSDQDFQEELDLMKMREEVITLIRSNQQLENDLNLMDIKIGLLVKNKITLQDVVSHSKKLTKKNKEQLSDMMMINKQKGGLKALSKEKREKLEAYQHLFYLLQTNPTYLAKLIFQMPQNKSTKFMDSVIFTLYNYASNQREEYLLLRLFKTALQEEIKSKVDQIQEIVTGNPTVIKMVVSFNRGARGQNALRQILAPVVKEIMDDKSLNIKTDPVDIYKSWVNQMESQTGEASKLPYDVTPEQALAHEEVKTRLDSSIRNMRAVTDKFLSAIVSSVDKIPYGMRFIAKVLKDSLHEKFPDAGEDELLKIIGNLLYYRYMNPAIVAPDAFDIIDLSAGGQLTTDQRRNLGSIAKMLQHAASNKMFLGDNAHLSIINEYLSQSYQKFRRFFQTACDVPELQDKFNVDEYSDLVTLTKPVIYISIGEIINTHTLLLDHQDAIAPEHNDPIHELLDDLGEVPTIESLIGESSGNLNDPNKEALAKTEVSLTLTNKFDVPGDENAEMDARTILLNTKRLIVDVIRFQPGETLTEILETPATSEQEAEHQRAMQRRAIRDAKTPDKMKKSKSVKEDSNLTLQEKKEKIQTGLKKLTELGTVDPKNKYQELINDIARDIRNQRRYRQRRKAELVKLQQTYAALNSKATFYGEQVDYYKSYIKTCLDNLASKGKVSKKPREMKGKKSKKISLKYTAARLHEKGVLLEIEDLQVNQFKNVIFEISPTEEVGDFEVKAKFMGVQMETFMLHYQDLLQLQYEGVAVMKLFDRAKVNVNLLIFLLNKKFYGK

B1: Flag-tagged GLK (Y735F) mutant (enzyme)
chain: DYKDDDDKMNPGFDLSRRNPQEDFELIQRIGSGTYGDVYKARNVNTGELAAIKVIKLEPGEDFAVVQQEIIMMKDCKHPNIVAYFGSYLRRDKLWICMEFCGGGSLQDIYHVTGPLSELQIAYVSRETLQGLYYLHSKGKMHRDIKGANILLTDNGHVKLADFGVSAQITATIAKRKSFIGTPYWMAPEVAAVERKGGYNQLCDLWAVGITAIELAELQPPMFDLHPMRALFLMTKSNFQPPKLKDKMKWSNSFHHFVKMALTKNPKKRPTAEKLLQHPFVTQHLTRSLAIELLDKVNNPDHSTYHDFDDDDPEPLVAVPHRIHSTSRNVREEKTRSEITFGQVKFDPPLRKETEPHHELPDSDGFLDSSEEIYYTARSNLDLQLEYGQGHQGGYFLGANKSLLKSVEEELHQRGHVAHLEDDEGDDDESKHSTLKAKIPPPLPPKPKSIFIPQEMHSTEDENQGTIKRCPMSGSPAKPSQVPPRPPPPRLPPHKPVALGNGMSSFQLNGERDGSLCQQQNEHRGTNLSRKEKKDVPKPISNGLPPTPKVHMGACFSKVFNGCPLKIHCASSWINPDTRDQYLIFGAEEGIYTLNLNELHETSMEQLFPRRCTWLYVMNNCLLSISGKASQLYSHNLPGLFDYARQMQKLPVAIPAHKLPDRILPRKFSVSAKIPETKWCQKCCVVRNPYTGHKYLCGALQTSIVLLEWVEPMQKFMLIKHIDFPIPCPLRMFEMLVVPEQEFPLVCVGVSRGRDFNQVVRFETVNPNSTSSWFTESDTPQTNVTHVTQLERDTILVCLDCCIKIVNLQGRLKSSRKLSSELTFDFQIESIVCLQDSVLAFWKHGMQGRSFRSNEVTQEISDSTRIFRLLGSDRVVVLESRPTDNPTANSNLYILAGHENSY
For the molecule B1, in assay [1], the binding result was “no binding”.

B2: Flag-tagged RORγt-S489A mutant (receptor)
chain: DYKDDDDKMRTQIEVIPCKICGDKSSGIHYGVITCEGCKGFFRRSQQCNVAYSCTRQQNCPIDRTSRNRCQHCRLQKCLALGMSRDAVKFGRMSKKQRDSLHAEVQKQLQQQQQQEQVAKTPPAGSRGADTLTYTLGLSDGQLPLGASPDLPEASACPPGLLRASGSGPPYSNTLAKTEVQGASCHLEYSPERGKAEGRDSIYSTDGQLTLGRCGLRFEETRHPELGEPEQGPDSHCIPSFCSAPEVPYASLTDIEYLVQNVCKSFRETCQLRLEDLLRQRTNLFSREEVTSYQRKSMWEMWERCAHHLTEAIQYVVEFAKRLSGFMELCQNDQIILLKAGAMEVVLVRMCRAYNANNHTVFFEGKYGGVELFRALGCSELISSIFDFSHFLSALCFSEDEIALYTALVLINANRPGLQEKRRVEHLQYNLELAFHHHLCKTHRQGLLAKLPPKGKLRSLCSQHVEKLQIFQHLHPIVVQAAFPPLYKELFSTDVEAPEGLSK
In the case of B2, the binding result with HA-tagged AhR is “no binding”.
